Measured values taken from patent US20080070264A1, “Intracellular Signaling-Induced Ret-Independent Gdnf Receptor-Effected Morphological Changes” (JPMORGAN CHASE BANK N.A., priority 2003, published 2008).

Tests used:
MET [1] = test: MET activation in GFRα1-transfected COS7 cells; type: cell-based
MET [2] = test: MET phosphorylation in SHEP neuroblastoma cells; type: cell-based, human; settings: GDNF 0.1 pg/ml; SHEP cells express GFRα1 but not RET; data not shown
Procedure: FIG. 7B: SHEP cells were grown with GDNF (10 ng/ml (lanes 2-4) or 5 pg/ml (lanes 5-7)) or HGF (10 ng/ml (lanes 8-9)) in the presence of PP2 (1 μM (lanes 3 and 6) and 10 μM (lanes 4 and 7)). To exclude a possible cytotoxic effect of the solvent, DMSO was added to the controls. […] The numbers below the lane indicate the fold of induction of MET tyrosine kinase. The results are representative of three independent experiments.
To detect MET activation, GFRα1- and RET/GFRα1-expressing MDCK or SHEP cells were starved overnight in MEM or RPMI 1640 with 1% FCS, respectively, and in serum-free medium for 2 h prior the induction. After 15 min incubation at 37° C. with GDNF (at indicated concentrations) or with 50 ng/ml HGF, cells were lysed as described. Cleared cell lysates were incubated with anti-MET antibodies (Santa Cruz Biotechnologies, Inc.) overnight at 4° C. Immunoprecipitates were collected with protein A-SEPHAROSE (Amersham Pharmacia Biotech), washed, separated by SDS-PAGE and transferred to HYBOND-ECL membranes. Membranes were immunoblotted with anti-phospho-tyrosine antibodies (Upstate Group Inc.) or anti-MET antibodies.
For all experiments, densitometry and quantifications were performed using TINA 2.0 program (Raytest, Straubenhardt, Germany).
For the inhibition of MET, and Src activation, SHEP or GFRα1- and RET/GFRα1-expressing MDCK cells were starved as described above. 1 or […] of the inhibitor PP2 (Calbiochem) was added 30 min before induction by GDNF or HGF. DMSO (dimethyl sulfoxide) was added to the positive controls together with GDNF or HGF.

wild-type MDCK cells = test: Branching tubule formation assay in 3-D collagen gel; type: cell-based, dog
Procedure: From the total amount of cysts in the field, the percentage of cysts with long branches was calculated. Only branches with lengths of more than two cyst diameters were counted.
Trypsinized cells were mixed 1:3 with collagen type I solution and plated. MEM with 10% FCS was overlaid on the gels with or without GDNF (Cephalon Inc. or R&D Systems, Inc.) or 50 ng/ml HGF. Cells in collagen were cultured for 3 days; GDNF-containing medium was changed daily. For quantification, cells were cultured for 3 days, fixed by 3% glutaraldehyde in PBS and counted under a light microscope.
To avoid the effect of possible contamination of GDNF preparation, recombinant GDNF from two different sources were tested. One tested GDNF was expressed in baculovirus-infected insect cells (Cephalon Inc.), the other was expressed in mouse myeloma cell line NSO (R&D Systems, Inc.).

MET [3] = target: T1, MET (Chlorocebus aethiops, UniProt Q2IBA6); test: 125I-labelled GDNF and HGF binding, chemical crosslinking, anti-MET immunoprecipitation; settings: RET/GFRα1-expressing MDCK cells; data not shown
T1 construct: different combinations of the MET β-subunit (140 kDa), Met-αβ heterodimer (190 kDa) and HGF complexes; endogenous in cells; host or cells: COS7 cells (wild type for 125I-HGF; transfected with pc3-GFRα1/GFP for 125I-GDNF)
T1 sequence (Q2IBA6 25-1381): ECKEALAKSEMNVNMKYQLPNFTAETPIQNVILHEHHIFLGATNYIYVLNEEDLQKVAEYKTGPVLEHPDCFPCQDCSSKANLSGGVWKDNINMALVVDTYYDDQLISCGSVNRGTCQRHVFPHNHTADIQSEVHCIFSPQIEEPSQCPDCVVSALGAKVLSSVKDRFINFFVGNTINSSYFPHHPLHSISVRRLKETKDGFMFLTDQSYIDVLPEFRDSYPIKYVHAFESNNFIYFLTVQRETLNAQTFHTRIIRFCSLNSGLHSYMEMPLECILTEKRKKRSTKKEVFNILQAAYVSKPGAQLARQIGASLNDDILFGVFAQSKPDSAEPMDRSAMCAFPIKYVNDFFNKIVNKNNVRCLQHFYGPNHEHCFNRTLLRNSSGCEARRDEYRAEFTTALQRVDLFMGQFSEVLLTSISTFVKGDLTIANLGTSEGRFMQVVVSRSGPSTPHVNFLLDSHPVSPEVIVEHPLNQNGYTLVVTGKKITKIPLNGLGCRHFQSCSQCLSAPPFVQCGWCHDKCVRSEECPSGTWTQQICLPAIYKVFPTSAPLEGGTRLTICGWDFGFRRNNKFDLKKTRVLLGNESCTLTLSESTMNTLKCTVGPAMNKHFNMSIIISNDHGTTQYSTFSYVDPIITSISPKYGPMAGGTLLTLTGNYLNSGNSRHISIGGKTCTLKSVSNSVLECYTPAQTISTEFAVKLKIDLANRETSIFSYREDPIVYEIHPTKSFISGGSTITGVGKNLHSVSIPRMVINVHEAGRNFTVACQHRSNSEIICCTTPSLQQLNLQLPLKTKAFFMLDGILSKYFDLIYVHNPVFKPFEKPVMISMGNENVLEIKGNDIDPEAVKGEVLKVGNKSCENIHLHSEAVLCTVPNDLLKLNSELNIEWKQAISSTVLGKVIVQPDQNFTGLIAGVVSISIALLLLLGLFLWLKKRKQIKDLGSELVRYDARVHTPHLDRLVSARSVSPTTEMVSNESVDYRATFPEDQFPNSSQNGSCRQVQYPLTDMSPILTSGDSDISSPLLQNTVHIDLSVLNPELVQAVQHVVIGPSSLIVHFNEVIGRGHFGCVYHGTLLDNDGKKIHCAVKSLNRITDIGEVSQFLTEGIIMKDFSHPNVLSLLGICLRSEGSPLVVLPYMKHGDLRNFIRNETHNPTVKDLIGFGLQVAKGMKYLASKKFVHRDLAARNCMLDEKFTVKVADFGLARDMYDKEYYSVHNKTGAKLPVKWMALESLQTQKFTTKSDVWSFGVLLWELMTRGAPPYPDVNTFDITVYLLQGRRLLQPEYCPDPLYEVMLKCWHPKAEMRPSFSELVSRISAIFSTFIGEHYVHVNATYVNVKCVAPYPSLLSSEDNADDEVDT
Procedure: Binding of ^125I-GDNF to COS7 cells transfected with GFRα1, and ^125-HGF to wild-type COS7, followed by cross-linking with EDC together with sulfo-NHS. Inmunoprecipitates with anti-MET antibodies (IP-Met) were analysed by SDS-PAGE under reducing conditions. ^125I-HGF α subunit and proHGF are marked by arrows. ^125I-HGF/MET complexes are denoted by arrow heads. The results are representative of five independent experiments.
GDNF and HGF were enzymatically iodinated with [^125I]NaI (Amersham Pharmacia Biotech) with lactoperoxidase to a specific activity of 100.000 cpm/ng as described (31). COS7 cells were transfected with pc3-GFRα1/GFP two days prior the assay. 2 nM of ^125I-GDNF or 1 nM of ^125I-HGF were allowed to bind to cell monolayers for 1-2 h on ice in binding buffer (DMEM/15 mM HEPES, pH 7.5; 0.2% BSA), washed, and chemically cross-linked for 30 min at room temperature using BS^3 ([Bis(sulfosuccinimidyl)suberate]), DSS ((Disulfosuccinimidyl)suberate), DSP (3,3-Dithio-bis-(sulfosuccinimidyl)propionate) or EDC ((1-Ethyl-3-[3-dimethylaminopropyl]carbodiimide Hydrochloride)) with sulfo-NHS (N-Hydroxysulfosuccinimide) (Pierce). The non-specific binding of GDNF was estimated by the amount of ^125I-GDNF binding to cells in the presence of 300 n M unlabeled GDNF. Cells were washed, lysed and immunoprecipitated with anti-MET antibodies as described. Gels were dried and analyzed by phosphorimaging in a BAS Reader 1800 (Fuji).

B1: GDNF: recombinant glial cell line-derived neurotrophic factor from Cephalon Inc. (baculovirus-infected insect cells) or R&D Systems, Inc. (mouse myeloma NSO) (protein, UniProt P39905 78-211, looked up)
Glial cell line-derived …: SPDKQMAVLPRRERNRQAAAANPENSRGKGRRGQRGKNRGCVLTAIHLNVTDLGLGYETKEELIFRYCSGSCDAAETTYDKILKNLSRNRRLVSDKVGQACCRPIAFDDDLSFLDDNLVYHILRKHSAKRCGCI
- MET activation (MET [1]): takes place
- MET phosphorylation (MET [2]): induced rapid MET phosphorylation
- branching tubule formation (wild-type MDCK cells; ligand 100 ng/ml, 3-D collagen gel): did not
- branching tubule formation (wild-type MDCK cells; mock-transfected MDCK cells used as controls): did not from branching tubules
- direct association of the GDNF receptor complex and MET (MET [3]): no direct association
